In paper PMC7015241:
Where two headings read alike, the source gives them in different places.

Key:
[1] = target: F-actin (Oryctolagus cuniculus) (UniProt P68135); conditions: cited from earlier work
[2] = target: Filamentous actin (F-actin) (rabbit) (UniProt P68135); assay: co-sedimentation; 1–30 μM polymerized actin incubated with 10 μM MYPN Ig3, Ig4 or Ig3–4 domain for 1 h in 100 μL, 150 000×g for 30 min; SDS-PAGE of supernatants and pellets, densitometry; F-buffer (Tris, KCl, MgCl2, DTT, pH 8.0)
[3] = target: F-actin (Oryctolagus cuniculus) (UniProt P68135); conditions: cited from earlier work; remark: listed apart in the source

## PALLD Ig3-4 (from UniProt Q9ET54)
[1]
  Kd: 9 µM

## Myopalladin (MYPN) Ig3 domain (domain or fragment)
[2]
  Kd: 7.6 µM

## PALLD Ig3 (from UniProt Q9ET54)
[3]
  Kd: 70 µM
